Reference: IntAct's records for PubMed 28469241

B1: Heart- and neural crest derivatives-expressed protein 2 (Mus musculus), Q61039 (parent)
chain: MSLVGGFPHHPVVHHEGYPFAAAAAAAAAAAASRCSHEENPYFHGWLIGHPEMSPPDYSMALSYSPEYASGAAGLDHSHYGGVPPGAGPPGLGGPRPVKRRGTANRKERRRTQSINSAFAELRECIPNVPADTKLSKIKTLRLATSYIAYLMDLLAKDDQNGEAEAFKAEIKKTDVKEEKRKKELNEILKSTVSSNDKKTKGRTGWPQHVWALELKQ
partner: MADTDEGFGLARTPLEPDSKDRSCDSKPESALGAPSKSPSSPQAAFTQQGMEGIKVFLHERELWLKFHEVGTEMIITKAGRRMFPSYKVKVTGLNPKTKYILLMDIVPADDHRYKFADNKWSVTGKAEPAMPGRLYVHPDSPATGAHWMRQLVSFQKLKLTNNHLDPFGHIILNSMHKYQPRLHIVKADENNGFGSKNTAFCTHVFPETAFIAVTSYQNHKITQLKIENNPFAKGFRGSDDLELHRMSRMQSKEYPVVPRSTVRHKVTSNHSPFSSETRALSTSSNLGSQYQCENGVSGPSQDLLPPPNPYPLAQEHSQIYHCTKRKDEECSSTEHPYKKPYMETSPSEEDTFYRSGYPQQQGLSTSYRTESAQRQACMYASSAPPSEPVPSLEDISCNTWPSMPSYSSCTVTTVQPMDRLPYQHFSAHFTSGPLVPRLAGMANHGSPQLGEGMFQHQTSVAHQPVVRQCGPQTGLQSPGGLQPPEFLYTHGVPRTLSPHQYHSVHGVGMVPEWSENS

Variants of: B1
Details: with tbx5_mouse Tbx5, P70326

| Variant | effect of a mutation on the interaction |
| --- | --- |
| MSLVGGFPHHPVVHHEGYPFAAAAAAAAAAAASRCSHEENPYFHGWLIGHPEMSPPDYSMALSYSPEYASGAAGLDHSHYGGVPPGAGPPGLGGPRPVKRRGTANRKERRRTQSINSAFAELRECIPNVPADTKLSKIKTLRLATSYIAYLMDLLAKDDQNGEAEAFKAEIKKTDVKEEKRKKELNEILKSTVSSNDKKTKVRTGWPQHVWALELKQ [G202V] | decreasing interaction strength |
